Among the data in PMC9814641, “Microbial rhodoquinone biosynthesis proceeds via an atypical RquA-catalyzed amino transfer from S-adenosyl-L-methionine to ubiquinone” (Communications Chemistry, 2022) are Kd, stoichiometry N and Km values, retold here.

A word on the stoichiometry N: it is a count of units in the complex or per binding partner. The Km is the substrate concentration at which the rate is half of its maximum.

One data set deals with T1, RquA (Rhodospirillum rubrum, UniProt Q2RPC3).
T1 construct: gene Rru_A3227
The data set can be described thus: intrinsic tryptophan fluorescence titration, one-site fit; also Michaelis-Menten kinetics (apparent Km […] with UQ3 and Mn2+). The class given is binding.

For data set [1], the target named is RquA (TEV-cleaved from MBP-RquA) (R. rubrum). The data set can be described thus: SEC; calibrated HiLoad 16/60 Superdex 200; TRIS (20 mM), NaCl (200 mM), TCEP (1 mM), 0.1% Brij-35, pH 8.0; mass estimated from the elution volume.
Substrate in data set [2]: COC1=C(OC)C(=O)C(C/C=C(\C)CC/C=C(\C)CCC=C(C)C)=C(C)C1=O
The data set can be described thus: LC-MS enzyme assay of conversion to RQ3, Michaelis-Menten kinetics (apparent Km). The following applies: Mn2+; SAM (co-substrate). Format: biochemical, Rhodospirillum rubrum.

For `C[S+](CC[C@H](N)C(=O)[O-])C[C@H]1O[C@@H](n2cnc3c(N)ncnc32)[C@H](O)[C@@H]1O` (stereo partly drawn) [compound 3, S-adenosyl-L-methionine], the Kd at RquA was 2220 ± 1020 µM.

Take “RquA (TEV-cleaved from MBP-RquA) (enzyme)”: in data set [1], the stoichiometry N is 2.

B1: RquA (Rhodospirillum rubrum ATCC 11170) (protein)
chain: MTKHQGAVRPVGPEESAFPASQSFSETGPVVADPIKPLPAYLQETYTWAYLDPRNVEWLDHEIVVNAILWGNMTRLMATAFKEFEPGQEVLQPACVYGPFSRHLAERLGPEGYLEVHDVAPVQIHHTRRKVEGLPQVTLRRADAADPLDRDFDGVCCFFLLHEVPDHVKSKIVDNMLSAVRPGGKVVFVDYHRYAALHPLRPIMAFVFRTLEPFAWGLCTREISDFASDAGSFTWRKETYFGGLYQKVVAERRA
notes: MBP-RquA
For B1, the Km in data set [2] was 0.155 ± 0.028 µM.
